T1: monkey C5-mmh (monkey, UniProt P01031 19-1676 (human entry), limits assumed)
T1 construct: Expressed with a C-terminal myc-myc-hexahistidine tag
T1 chain: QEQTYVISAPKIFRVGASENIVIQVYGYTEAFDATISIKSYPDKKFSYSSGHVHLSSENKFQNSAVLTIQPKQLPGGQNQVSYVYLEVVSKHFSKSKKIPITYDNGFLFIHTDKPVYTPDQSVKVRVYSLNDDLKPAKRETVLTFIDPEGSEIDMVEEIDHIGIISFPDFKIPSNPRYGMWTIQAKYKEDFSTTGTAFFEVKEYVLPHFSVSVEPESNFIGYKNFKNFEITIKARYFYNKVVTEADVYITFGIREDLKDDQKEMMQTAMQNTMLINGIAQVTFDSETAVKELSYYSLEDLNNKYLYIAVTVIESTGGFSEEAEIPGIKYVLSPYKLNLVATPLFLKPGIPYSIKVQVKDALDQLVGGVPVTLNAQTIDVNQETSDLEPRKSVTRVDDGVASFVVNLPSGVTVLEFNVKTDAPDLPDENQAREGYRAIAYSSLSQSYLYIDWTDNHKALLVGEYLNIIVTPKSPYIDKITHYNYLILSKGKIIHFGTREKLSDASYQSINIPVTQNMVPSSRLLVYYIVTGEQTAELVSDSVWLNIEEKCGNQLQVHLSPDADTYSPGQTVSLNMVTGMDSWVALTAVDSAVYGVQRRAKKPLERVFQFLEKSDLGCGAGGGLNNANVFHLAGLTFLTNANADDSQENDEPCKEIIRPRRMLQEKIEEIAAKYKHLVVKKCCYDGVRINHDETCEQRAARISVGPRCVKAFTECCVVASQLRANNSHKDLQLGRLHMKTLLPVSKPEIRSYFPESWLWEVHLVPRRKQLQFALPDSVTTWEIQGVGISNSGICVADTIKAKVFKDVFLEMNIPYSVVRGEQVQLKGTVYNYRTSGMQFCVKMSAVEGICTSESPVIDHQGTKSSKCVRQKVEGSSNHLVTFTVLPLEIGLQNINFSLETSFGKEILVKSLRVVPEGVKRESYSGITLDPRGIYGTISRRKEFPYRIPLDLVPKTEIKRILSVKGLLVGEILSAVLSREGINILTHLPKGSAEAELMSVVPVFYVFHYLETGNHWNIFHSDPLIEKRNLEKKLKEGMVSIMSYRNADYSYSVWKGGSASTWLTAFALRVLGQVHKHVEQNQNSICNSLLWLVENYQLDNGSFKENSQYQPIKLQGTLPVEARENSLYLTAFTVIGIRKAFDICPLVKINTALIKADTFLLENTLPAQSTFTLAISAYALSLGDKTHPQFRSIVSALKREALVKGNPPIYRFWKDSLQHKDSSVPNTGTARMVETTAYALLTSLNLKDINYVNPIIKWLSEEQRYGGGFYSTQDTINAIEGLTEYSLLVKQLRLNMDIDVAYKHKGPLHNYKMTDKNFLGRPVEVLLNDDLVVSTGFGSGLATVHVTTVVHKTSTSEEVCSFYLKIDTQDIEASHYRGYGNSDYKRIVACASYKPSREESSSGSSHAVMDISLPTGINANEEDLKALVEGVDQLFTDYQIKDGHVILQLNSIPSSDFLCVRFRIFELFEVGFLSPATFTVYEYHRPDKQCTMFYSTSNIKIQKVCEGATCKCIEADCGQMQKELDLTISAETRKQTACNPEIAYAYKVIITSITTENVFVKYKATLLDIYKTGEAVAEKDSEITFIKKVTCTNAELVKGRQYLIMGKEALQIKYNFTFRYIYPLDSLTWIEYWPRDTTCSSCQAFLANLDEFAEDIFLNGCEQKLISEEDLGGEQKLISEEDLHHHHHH

B1: H4H12169P (antibody, human IgG4, V domains shown)
VH: EVQLVESGGGLAQPGGSLRLSCAASGFTFRSYAMSWVRQAPGKGPEWVSGIGGNGVTTYYADSVKGRFTISRDNSKNTLFLQMNSLRAEDTAVYYCVQGGLGGYFTGYWGQGTLVTVSS
VL: DIQMTQSPSSLSASVGDRVTITCRASQSISTYLNWYQQNPGKAPKLLIFDASSLQSGVPSRFSGSGSGTDFTLTIRGLQPEDFATYYCQQSYSAPLTFGGGTKVEIK
B2: H4H11686N (antibody, human IgG4, V domains shown)
VH: QVQLVESGGGLVKPGGSLRLSCAASGFTFSDYYMSWIRQAPGKGLEWVSYISSSGNTIKYADSMKGRFTISRDNAKKSLFVEMNSLRAEDTAVYYCARYKSSSDYFDHWGQGTLVTVSS
VL: EIVLTQSPATLSLSPGERATLSCRASQSVRSYLAWYQQKPGQAPRLLIYDASNRATAIPARFSGSGSGTDFTLTISSLEPEDLAVYYCQQSGNWPLTFGGGTKVEIK
notes: also called H2M11686N
B3: H4H12168P (antibody, human IgG4, V domains shown)
VH: QVQLVESGGGVVQPGGSLRLSCAASGFTFGGHAMHWVRQAPGKGLEWLAVISSDGSNKQYADSVKGRFTISRDNPKNTLYLQMNSLRVGDTAIYYCAKEVAPRYYYYGLDVWGQGTTVTVSS
VL: DIQMTQSPSSLSASVGDRVTITCRASQDISNFLAWYQQKPGKVPKLLIYTASTLQSGVPSRFSGSGSGTDFTLTVSSLQPEDVATYYCQKYAGALTFGPGTKVDIK
B4: H4H12164P (antibody, human IgG4, V domains shown)
VH: EVQLVESGGGLVRSGGSLRLSCAASGFTFNRYAMTWVRQAPGKGLEWVSAISGSGSSTYYTDSVKGRFTISRDNSKNSVDLQMHSLRVEDTAIYYCARGTTVTTGYGMDVWGQGTTVTVSS
VL: DIQMTQSPSSLSASVGDRVTFTCQASQDITNSLNWYQQKPGRAPKLLIYDASYLKAGVPSRFSGSGSGTDFTFTISSLQPEDIATYYCQQYDDLPYTFGQGTKLEIK

target: T2, Human C5 (human, UniProt P01031 19-1676); test: SPR, mAb captured by anti-hFc, 37C
T2 construct: The natural protein has a beta and an alpha chain; also called complement factor 5; complement component 5
Protocol: (§1) Equilibrium dissociation constants (KD values) for C5 binding to purified anti-C5 antibodies were determined using a real-time surface plasmon resonance biosensor assay on a Biacore T200 instrument. The Biacore sensor surface was derivatized by amine coupling with a monoclonal mouse anti-human Fc antibody (GE Healthcare, # BR-1008-39) to capture anti-C5 antibodies expressed with human Fc constant regions. Biacore binding studies were conducted in HBST running buffer (0.01M HEPES pH 7.4, 0.15M NaCl, 3 mM EDTA, 0.05% v/v Surfactant P20).
(§2) Human C5 was obtained from a commercial source (EMD). Other C5 reagents were expressed with a C-terminal myc-myc-hexahistidine tag (subsequently referred to as C5-mmh). […] Association of all the C5 reagents to each of the captured monoclonal antibodies was monitored for 3 minutes and their dissociation in HBST running buffer was monitored for 8 minutes. All the binding kinetics experiments were performed at either 25° C. or 37° C. Kinetic association (kₐ) and dissociation (kd) rate constants were determined by fitting the real-time sensorgrams to a 1:1 binding model using Scrubber 2.0c curve fitting software. Binding dissociation equilibrium constants (KD) and dissociative half-lives (t %) were calculated from the kinetic rate constants as: KD (M)=kd/kₐ and t_{1/2} (min)=In2/(60×kd)

Row | 100 nM Human C5 Bound (RU) | Kd | koff | kon | t½ | Binder
1 | 65 RU | 3.06 nM | 0.000352 s⁻¹ | 115000 M⁻¹ s⁻¹ | 33 min | B1
2 | 406 RU | 0.469 nM | 0.000156 s⁻¹ | 333000 M⁻¹ s⁻¹ | 74 min | B2
3 | 12 RU | 18.5 nM | 0.000464 s⁻¹ | 25000 M⁻¹ s⁻¹ | 25 min | B3
4 | 140 RU | 0.323 nM | 0.000128 s⁻¹ | 396000 M⁻¹ s⁻¹ | 90 min | B4

Target: T1, monkey C5-mmh
Test: SPR, mAb captured by anti-hFc, 25C
Protocol: as §1, §2

Row | 100 nM monkey C5-mmh Bound (RU) | Kd | koff | kon | t1/2 | Binder
5 | 22 RU | 27.8 nM | 0.00455 s⁻¹ | 164000 M⁻¹ s⁻¹ | 3 min | B1
6 | 247 RU | 3.11 nM | 0.000489 s⁻¹ | 157000 M⁻¹ s⁻¹ | 24 min | B2
7 | 86 RU | 0.66 nM | 0.000114 s⁻¹ | 173000 M⁻¹ s⁻¹ | 101 min | B3
8 | 66 RU | 12 nM | 0.00153 s⁻¹ | 127000 M⁻¹ s⁻¹ | 8 min | B4

target: T2, Human C5; test: SPR, mAb captured by anti-hFc, 25C
Protocol: as §1, §2

Row | 100 nM Human C5 Bound (RU) | Kd | koff | kon | t½ | Binder
9 | 18 RU | 1.96 nM | 0.00044 s⁻¹ | 224000 M⁻¹ s⁻¹ | 26 min | B1
10 | 341 RU | 0.15 nM | 3.31e-05 s⁻¹ | 220000 M⁻¹ s⁻¹ | 349 min | B2
11 | 113 RU | 0.112 nM | 4.75e-05 s⁻¹ | 423000 M⁻¹ s⁻¹ | 243 min | B3
12 | 103 RU | 0.302 nM | 8.84e-05 s⁻¹ | 292000 M⁻¹ s⁻¹ | 131 min | B4

— patent US20170355757A1 (Regeneron, published 2017)
